Experimental data reported in article PMC9129042 (PLoS ONE, 2022).

Biological target: WA-1 NTD probe (SARS-CoV-2 WA-1, UniProt P0DTC2, biotin on the AVI tag (…))
Assay: BLI
Settings: both partners purified

B1: 5–7 (antibody, V domains shown)
VH: QVQLVQSGAEVKKPGASVKVSCKASGYTFTSYYMHWVRQAPGQGLEWMGVINPSGGSTSYAEKFRGRVTMTRDTSTSTVYMELSSLRSEDTAVYYCARDREPHSDSSGYWDSLKYYYYYALDVWGQGTTVTVSS
VL: AIQLTQSPSSLSASVGDRVTITCRASQGISSYLAWYQQKPGKAPELLIYAASTLQSGVPSRFSGSGSGTDFTLTISSLQPEDFATYYCQQLNTYPFTFGPGTKVDIK
notes: also called antibody 5-7
B1: binds.
